Laboratory results reported in US20220169699A1 (published 2022).

Legend:
[1] = biological target: murine PD-1-transmembrane PD-1-CD28 fusion protein (PTM) (murine); assay: cell-based or functional assay
[2] = biological target: T1, recombinant murine PD-L1 Fc chimera (R&D Systems) (murine, UniProt Q9EP73 19-238); assay: flow cytometry; transduced murine T cells incubated with recombinant PD-L1-Fc
T1 construct: also called recombinant PD-L1; recombinant PD-L1-Fc; not shown: Fc part of the bought R&D Systems chimera (detected with anti-human IgG)
T1 sequence (Q9EP73 19-238, change not shown): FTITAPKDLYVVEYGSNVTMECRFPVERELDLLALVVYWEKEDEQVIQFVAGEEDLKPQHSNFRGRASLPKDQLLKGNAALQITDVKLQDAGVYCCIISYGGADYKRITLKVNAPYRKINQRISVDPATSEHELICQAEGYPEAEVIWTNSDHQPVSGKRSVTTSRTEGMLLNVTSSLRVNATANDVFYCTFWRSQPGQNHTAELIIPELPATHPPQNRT

Molecule “full length murine PD-L1 on Panc02-OVA-PD-L1 tumor cells (from UniProt Q9EP73 19-290) (ligand)” has an IFN-γ release in coculture of PTM-transduced OT-1 T cells with tumor cells [1] of 545 ng/mL.

B1: murine PD-1-transmembrane PD-1-CD28 fusion protein (PTM) (receptor)
chain: LEVPNGPWRSLTFYPAWLTVSEGANATFTCSLSNWSEDLMLNWNRLSPSNQTEKQAAFCNGLSQPVQDARFQIIQLPNRHDFHMNILDTRRNDSGIYLCGAISLHPKAKIEESPGAELVVTERILETSTRYPSPSPKPEGRFQGMVIGIMSALVGIPVLLLLAWALNSRRNRLLQSDYMNMTPRRPGLTRKPYQPYAPARDFAAYRP
notes: Expressed on retrovirally transduced primary murine T cells; The entry starts at PD-1 residue 1, so it includes the signal peptide; also called mPTM; PTM fusion protein
B1: binds [2].
